From the Human Domainome abundance scans (Beltran et al. 2025)
± gives the uncertainty stated by the source.

B1: Dynamin-binding protein, residues 146 to 206; numbered along this chain, Q6XZF7 (parent)
chain: SMGQARALMGLSAQLDEELDFREGDVITIIGVPEPGWFEGELEGRRGIFPEGFVELLGPLR

Variants of: B1
Assay: abundance fitness (aPCA) (normalised: wild type 0, dead -1); higher = more abundant; growth selection in yeast, the domain comes from the species named
Conditions: Homo sapiens
For SMGQARALMGLSAQLDEELDFREGDVITIIGVPEPGWFEGELEGRRGIFPEGFIELLGPLR [V54I], the abundance fitness was -0.947 ± 0.24.
For SMGQARALMGLSAQLDEELDFREGDVITIIGVPEPGWFEGELEGRRGIFPEGFEELLGPLR [V54E], the abundance fitness was -0.81 ± 0.38.
In the case of SMGQARALMGLSAQLDEELDFREGDVITIIGVPEPGWFEPELEGRRGIFPEGFVELLGPLR [G40P], the abundance fitness is reported as -0.502 ± 0.095.
In the case of SMGQARALMGLSAQLDEELDFREGDVITIKGVPEPGWFEGELEGRRGIFPEGFVELLGPLR [I30K], the abundance fitness is reported as -0.129 ± 0.14.
SMGQARALMGLSAQLDEELDFREGDVITIYGVPEPGWFEGELEGRRGIFPEGFVELLGPLR [I30Y] showed an abundance fitness of -0.286 ± 0.15.
Work on SMGQARALMGLSAQLDEELDFREGDVITIRGVPEPGWFEGELEGRRGIFPEGFVELLGPLR [I30R] yielded an abundance fitness of -0.284 ± 0.11.
For SMGQARALMGLSAQLDEELDFREGDVITIIGVGEPGWFEGELEGRRGIFPEGFVELLGPLR [P33G], the abundance fitness was -0.469 ± 0.12.
With SMGQARALMGLSAQLDEELDFREGDVITIIGVVEPGWFEGELEGRRGIFPEGFVELLGPLR [P33V] the abundance fitness was -0.435 ± 0.17.
With SMGQARALMGLSAQLDEELDFREGDVITIIGVIEPGWFEGELEGRRGIFPEGFVELLGPLR [P33I] the abundance fitness was -0.494 ± 0.15.
Variant SMGQARALMGLSAQLDEELDFREGDVITIIGVLEPGWFEGELEGRRGIFPEGFVELLGPLR [P33L] has an abundance fitness of -0.615 ± 0.19.
SMGQARALMGLSAQLDEELDFREGDVITIIGVDEPGWFEGELEGRRGIFPEGFVELLGPLR [P33D] showed an abundance fitness of -1.11 ± 0.35.
For SMGQARALMGVSAQLDEELDFREGDVITIIGVPEPGWFEGELEGRRGIFPEGFVELLGPLR [L11V], the abundance fitness was -0.402 ± 0.081.
With SMGQARALMGLSAQLDEELDFREGDVDTIIGVPEPGWFEGELEGRRGIFPEGFVELLGPLR [I27D] the abundance fitness was -0.694 ± 0.066.
SMGQARALMGLSAQLDEELDFREGDVITIIGVPETGWFEGELEGRRGIFPEGFVELLGPLR [P35T] gave an abundance fitness of -0.064 ± 0.088.
For SMGQARALMGLSAQLDEELDFREGDVITIIGVPEQGWFEGELEGRRGIFPEGFVELLGPLR [P35Q], the abundance fitness was -0.203 ± 0.13.
With SMGQARALMGLSAQLDEELDFREGDVITIIGVPEMGWFEGELEGRRGIFPEGFVELLGPLR [P35M] the abundance fitness was -0.473 ± 0.16.
For SMGQARALMGLSAQLDEELDFREGDVITIIGVPEGGWFEGELEGRRGIFPEGFVELLGPLR [P35G], the abundance fitness was -0.743 ± 0.11.
In the case of SMGQARALMGLSAQLDEELDFREGDVITIIGVPGPGWFEGELEGRRGIFPEGFVELLGPLR [E34G], the abundance fitness is reported as -0.379 ± 0.16.
For SMGQARALMGLSAQLDEELDFREGDVITIIGVPSPGWFEGELEGRRGIFPEGFVELLGPLR [E34S], the abundance fitness was -0.129 ± 0.12.
For SMGQARALMGLSAQLDEELDFREGDVITIIGVPQPGWFEGELEGRRGIFPEGFVELLGPLR [E34Q], the abundance fitness was -0.364 ± 0.21.
Work on SMGQARALMGLSAQLDEELDFREGDVITIIGVPAPGWFEGELEGRRGIFPEGFVELLGPLR [E34A] yielded an abundance fitness of -0.42 ± 0.28.
SMGQARALMGLSAQLDEELDFREGDVITIIGVPEPGWFEGELEGRRGIFPEGFVELLEPLR [G58E] gave an abundance fitness of 0.082 ± 0.15.
With SMGQARALMGLSIQLDEELDFREGDVITIIGVPEPGWFEGELEGRRGIFPEGFVELLGPLR [A13I] the abundance fitness was -0.541 ± 0.077.
In the case of SMGQARALCGLSAQLDEELDFREGDVITIIGVPEPGWFEGELEGRRGIFPEGFVELLGPLR [M9C], the abundance fitness is reported as -0.013 ± 0.061.
Variant SMGQKRALMGLSAQLDEELDFREGDVITIIGVPEPGWFEGELEGRRGIFPEGFVELLGPLR [A5K] has an abundance fitness of -0.696 ± 0.39.
Work on SMGQSRALMGLSAQLDEELDFREGDVITIIGVPEPGWFEGELEGRRGIFPEGFVELLGPLR [A5S] yielded an abundance fitness of -0.545 ± 0.13.
SMGQARALMGLSAQLDEELDFREGDVITIIGVPEPGWFEGELEGRRGIFPSGFVELLGPLR [E51S] showed an abundance fitness of -0.053 ± 0.065.
Work on SMGQARALMGLSAQLDEELDFREGDVITIIGVPEPGWFEGELEGRRGIFPQGFVELLGPLR [E51Q] yielded an abundance fitness of -0.074 ± 0.18.
Variant RMGQARALMGLSAQLDEELDFREGDVITIIGVPEPGWFEGELEGRRGIFPEGFVELLGPLR [S1R] has an abundance fitness of -0.319 ± 0.12.
For WMGQARALMGLSAQLDEELDFREGDVITIIGVPEPGWFEGELEGRRGIFPEGFVELLGPLR [S1W], the abundance fitness was -0.16 ± 0.27.
For FMGQARALMGLSAQLDEELDFREGDVITIIGVPEPGWFEGELEGRRGIFPEGFVELLGPLR [S1F], the abundance fitness was -0.029 ± 0.087.
Variant TMGQARALMGLSAQLDEELDFREGDVITIIGVPEPGWFEGELEGRRGIFPEGFVELLGPLR [S1T] has an abundance fitness of -0.092 ± 0.11.
SMGQARALMGLSAQLDEELDFREGDSITIIGVPEPGWFEGELEGRRGIFPEGFVELLGPLR [V26S] gave an abundance fitness of -0.704 ± 0.059.
With SMGQARALMGLSAQLDEELDFREGDPITIIGVPEPGWFEGELEGRRGIFPEGFVELLGPLR [V26P] the abundance fitness was -0.64 ± 0.12.
SMGQARALMGLSAQLDEELDFREGDHITIIGVPEPGWFEGELEGRRGIFPEGFVELLGPLR [V26H] gave an abundance fitness of -0.279 ± 0.067.
SMGQARALMGLSAQLDEELDFREGDKITIIGVPEPGWFEGELEGRRGIFPEGFVELLGPLR [V26K] showed an abundance fitness of -0.311 ± 0.12.
SMGQARALMGLSAQLDEELDFREGDMITIIGVPEPGWFEGELEGRRGIFPEGFVELLGPLR [V26M] gave an abundance fitness of -0.154 ± 0.1.
Work on SMGQARALMGLSAQLDEELDFREGDGITIIGVPEPGWFEGELEGRRGIFPEGFVELLGPLR [V26G] yielded an abundance fitness of -0.687 ± 0.056.
SMGQARALMGLSAQLDEELDFREGDVITIIGVPEPGWPEGELEGRRGIFPEGFVELLGPLR [F38P] gave an abundance fitness of -0.994 ± 0.16.
In the case of SMGQARALMGLSAQLDEELDFREGDVITIIGVPEPGWWEGELEGRRGIFPEGFVELLGPLR [F38W], the abundance fitness is reported as -0.667 ± 0.11.
SMGQARALMGLSAQLDEELDFREGDVITIIGVPEPGWHEGELEGRRGIFPEGFVELLGPLR [F38H] showed an abundance fitness of -1.08 ± 0.16.
SMGQARNLMGLSAQLDEELDFREGDVITIIGVPEPGWFEGELEGRRGIFPEGFVELLGPLR [A7N] showed an abundance fitness of -0.781 ± 0.11.
For SMGQARELMGLSAQLDEELDFREGDVITIIGVPEPGWFEGELEGRRGIFPEGFVELLGPLR [A7E], the abundance fitness was -0.989 ± 0.33.
For SMGQARTLMGLSAQLDEELDFREGDVITIIGVPEPGWFEGELEGRRGIFPEGFVELLGPLR [A7T], the abundance fitness was -0.296 ± 0.21.
